Laboratory results as given in patent US20250152729A1.
Like-named read-outs stand apart in the source and are kept apart here.

How the values were obtained:
[1] = biological target: BCMA (TNFRSF17) on NCI-H929 cells (UniProt Q02223); assay: cell-based or functional assay
[2] = biological target: BCMA (TNFRSF17) on NCI-H929 cells (UniProt Q02223); assay: cell-based or functional assay; remark: listed apart in the source

Sequence of BCMA (TNFRSF17) on NCI-H929 cells (Q02223 whole entry): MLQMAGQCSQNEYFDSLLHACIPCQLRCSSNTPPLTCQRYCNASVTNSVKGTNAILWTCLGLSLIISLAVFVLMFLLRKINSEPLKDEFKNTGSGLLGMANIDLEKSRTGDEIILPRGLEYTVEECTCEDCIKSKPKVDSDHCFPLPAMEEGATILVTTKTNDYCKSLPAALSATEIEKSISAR

Question: “J6M0 anti-BCMA human Alya IgG1 conjugated to McMMAF (antibody)” was tested. Which Average NCI-H929 IC50 [pM], cell kill [1] did it give?
Answer: Its Average NCI-H929 IC50 [pM], cell kill is 110 pM.

Question: And the Average NCI-H929 IC50 [pM], cell kill [2]?
Answer: The Average NCI-H929 IC50 [pM], cell kill was 74.5 pM.

Question: And the EC50 (nM), Fab-pHast internalisation into NCI-H929 [2]?
Answer: Its EC50 (nM), Fab-pHast internalisation into NCI-H929 is 11 nM.

Question: And the Fold-Change at 6 hours (10 nM), Fab-pHast internalisation [2]?
Answer: The Fold-Change at 6 hours (10 nM), Fab-pHast internalisation was 37 fold.
